# B1: Ras-related protein Rab-6A (Homo sapiens), P20340-1 (parent)
# chain: MSTGGDFGNPLRKFKLVFLGEQSVGKTSLITRFMYDSFDNTYQATIGIDFLSKTMYLEDRTVRLQLWDTAGQERFRSLIPSYIRDSTVAVVVYDITNVNSFQQTTKWIDDVRTERGSDVIIMLVGNKTDLADKRQVSIEEGERKAKELNVMFIETSAKAGYNVKQLFRRVAAALPGMESTQDRSREDMIDIKLEKPQEQPVSEGGCSC
# partner: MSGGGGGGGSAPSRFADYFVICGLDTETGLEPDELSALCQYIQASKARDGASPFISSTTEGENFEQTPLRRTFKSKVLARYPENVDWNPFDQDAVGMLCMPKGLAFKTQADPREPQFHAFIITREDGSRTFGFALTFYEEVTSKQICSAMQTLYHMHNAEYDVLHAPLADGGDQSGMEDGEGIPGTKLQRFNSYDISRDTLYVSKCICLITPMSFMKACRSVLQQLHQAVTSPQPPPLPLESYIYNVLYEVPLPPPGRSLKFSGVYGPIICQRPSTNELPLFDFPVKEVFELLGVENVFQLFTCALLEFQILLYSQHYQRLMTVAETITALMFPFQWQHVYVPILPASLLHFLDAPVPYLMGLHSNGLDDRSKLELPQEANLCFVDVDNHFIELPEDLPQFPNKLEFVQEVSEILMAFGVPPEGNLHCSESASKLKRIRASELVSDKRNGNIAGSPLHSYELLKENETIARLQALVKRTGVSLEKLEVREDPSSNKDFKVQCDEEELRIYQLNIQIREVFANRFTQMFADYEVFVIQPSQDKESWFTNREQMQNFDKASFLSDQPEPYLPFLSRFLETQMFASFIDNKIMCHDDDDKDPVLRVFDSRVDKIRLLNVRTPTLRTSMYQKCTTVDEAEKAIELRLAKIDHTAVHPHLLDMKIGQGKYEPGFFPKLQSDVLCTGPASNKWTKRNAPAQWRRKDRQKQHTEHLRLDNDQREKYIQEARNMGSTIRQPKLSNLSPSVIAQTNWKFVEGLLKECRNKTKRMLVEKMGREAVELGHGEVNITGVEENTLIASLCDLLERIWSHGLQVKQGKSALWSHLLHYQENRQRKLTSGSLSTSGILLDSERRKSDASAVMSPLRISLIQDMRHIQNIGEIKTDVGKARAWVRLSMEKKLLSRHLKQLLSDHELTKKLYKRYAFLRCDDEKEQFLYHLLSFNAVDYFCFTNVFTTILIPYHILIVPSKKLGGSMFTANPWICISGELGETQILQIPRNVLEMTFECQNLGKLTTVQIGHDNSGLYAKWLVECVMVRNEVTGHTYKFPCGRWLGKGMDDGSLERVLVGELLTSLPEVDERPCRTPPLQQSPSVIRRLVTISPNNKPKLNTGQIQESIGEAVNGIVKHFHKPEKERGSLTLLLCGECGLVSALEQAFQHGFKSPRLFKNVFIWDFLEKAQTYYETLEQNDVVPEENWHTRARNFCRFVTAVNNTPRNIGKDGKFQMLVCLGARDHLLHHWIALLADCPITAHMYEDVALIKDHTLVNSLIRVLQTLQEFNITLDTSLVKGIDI
# Variants of: B1
# Conditions: with den5a_mouse Dennd5a
row,Variant,effect of a mutation on the interaction
1,I46E,disrupting interaction
